Here are results for 14 molecules from patent publication US20230203172A1 (SHANGHAI MABGEEK BIOTECH, published 2023).

Substitutions are numbered along the chain they refer to.

For orientation: EC50 means the concentration needed to bring the measured effect to its halfway point. The term Kd denotes the concentration at which binding is half-saturated. One may read the koff as a measure of how fast the partners let go of each other. Read a low koff as slow dissociation. What is called kon is the rate constant with which the complex forms.

B1: murine anti-hIL-4R alpha monoclonal antibody 59 (antibody, V domains shown)
VH: EVQLVESGGGLVKPGGSLKLSCAASGFTFSDYGIHWVRQAPDKGLEWVAYIRSDSSIIHYADTVKGRFTISRDNAKNTLFLQMTSLRSEDTAMYYCTRGRDRGYFDYWGQGTTLTVSS
VL: QIVLTQSPALMSASPGEKVTMTCSASSSVSYMYWYQQKPRSSPKPWIYLTSNLASGVPARFSGSGSGTSYSLTISSMEAEDAATYYCQQWTSIPFTFGSGTKLEIK
notes: Mouse hybridoma antibody purified on ProteinG
B2: murine anti-hIL-4R alpha monoclonal antibody 228 (antibody, V domains shown)
VH: DVQLQQSGPELLKPGASVKIPCQASGYTFTDYNMDWVKQSHGKNLEWIGNINPNNGGTFYNQKFKGKATLTVDKSSSTAYMELRSLTSEDTAVYYCGRGGLRRRGFMDYWGQGTSVTVSS
VL: QIVLSQSPAILSASPGEKVTMTCRASSSVIYIHWYQQKPGSSPKPWIYAASNLASGVPARFSGSGSGTSYSLTISRVEAEDAATYYCQQWSVNPPTFGGGTKLEIK
notes: as for B1
B3: murine anti-hIL-4R alpha monoclonal antibody 75 (antibody, V domains shown)
VH: B2 VH with D1E, L12V, Q23K, N44S, N50D, G57N, T58I, F59L, Y60F, M81V
VL: B2 VL with I30S, I32M, V92S
notes: as for B1
B4: murine anti-hIL-4R alpha monoclonal antibody 54 (antibody, V domains shown)
VH: B2 VH with D1E, L12V, Q23K, N44S, N50D, G57N, T58I, F59L, Y60F, M81V
VL: B2 VL with I30S, I32M, V92S
notes: as for B1
B5: murine anti-hIL-4R alpha monoclonal antibody 57 (antibody, V domains shown)
VH: B2 VH with D1E, L12V, Q23K, N44S, N50D, G57N, T58I, F59L, Y60F, M81V
VL: B2 VL with I30S, I32M, V92S
notes: as for B1
B6: murine anti-hIL-4R alpha monoclonal antibody 83 (antibody, V domains shown)
VH: EVQLQQSGPELVKPGASVKIPCKASGYTFTDYNMDWVKQSRGKSLEWIGTINPNNGDTMYNQKFKDKATLTVDKSSTTAYMELRSLTSEDTAVYYCGRGGLRRRGFMDYWGRGTSVTVSS
VL: B2 VL with A50I, S71F, A79V
notes: as for B1
B7: murine anti-hIL-4R alpha monoclonal antibody 236 (antibody, V domains shown)
VH: EVQLQQSGPELVKPGASVKIPCKASGYTFTDYNVDWVKQSHGQSLDWIGTINPNNGGILSNQKFKGKATLTVDTSSSTAYMELRSLTSEDTAVYYCGRGGLRRRGFMDYWGQGTSVTVSS
VL: B2 VL with Q36Y, P39A, A54P, V92S
notes: as for B1
B8: murine anti-hIL-4R alpha monoclonal antibody 64 (antibody, V domains shown)
VH: B2 VH with D1E, L12V, P21S, Q23K, N44S, N50T, I51T, F59L, G97A, M107V
VL: B2 VL with I30N, I32L, A50T, V92S
notes: as for B1
B9: murine anti-hIL-4R alpha monoclonal antibody 136 (antibody, V domains shown)
VH: EVQLVESGGGLVKPGGSLKLSCAASGFTFSDYGMHWVRQAPEKGLEWVAYISSGSTTIYYADTVKGRFTISRDNGKNTLFLQMTSLRSEDTAMYYCARISTVVAKRYAMDYWGQGTSVTVSS
VL: DIQMTQTASSLSASLGDRVTISCRASQDISNYLNWYQQKPDGTVKLLIYYTSRLHSGVPSRFSGSGSGTDYSLTISNLEQEDIATYFCQQINALPLTFGAGTKLELK
notes: as for B1
B10: humanized anti-hIL-4R alpha monoclonal antibody 29-Hu (antibody, human IgG4 S228P, kappa, V domains shown)
VH: EVQLVESGGGLVQPGGSLRLSCAASGFTFSDYGMHWVRQAPGKGLEWVAYINSGSSKIYHADTVKGRFTISRDNAKNSLYLQMNSLRAEDTAVYYCARFPTVVAARYPMDYWGQGTLVTVSS
VL: DIQMTQSPSSLSASVGDRVTITCRASQDISNYLNWYQQKPGKAPKLLIYFTSRLHSGVPSRFSGSGSGTDYTLTISSLQPEDFATYYCQQGNTLPYTFGQGTKLEIKR
notes: Humanized, human IgG4 constant region; expressed in HEK293, purified on ProteinA
B11: humanized anti-hIL-4R alpha monoclonal antibody 131-Hu (antibody, human IgG4 S228P, kappa, V domains shown)
VH: B10 VH with A49S, N52S, K57T, H60Y, F99I, P100S, A105K, P108A
VL: B10 VL with F50Y, Y71F, F83I, Q90E, G91V, T93M, Y96F, L104V
notes: as for B10
B12: humanized anti-hIL-4R alpha monoclonal antibody 136-Hu (antibody, human IgG4 S228P, kappa, V domains shown)
VH: B10 VH with A49S, N52S, S56T, K57T, H60Y, F99I, P100S, A105K, P108A
VL: B10 VL with F50Y, Y71F, F83I, G91I, T93A, Y96F
notes: as for B10
B13: humanized anti-hIL-4R alpha monoclonal antibody 59-Hu (antibody, human IgG4 S228P, kappa, V domains shown)
VH: EVQLVESGGGLVQPGGSLRLSCAASGFTFSDYGIHWVRQAPGKGLEWVSYIRSDSSIIHYADTVKGRFTISRDNAKNSLYLQMNSLRAEDTAVYYCARGRDRGYFDYWGQGTLVTVSS
VL: EIVLTQSPATLSLSPGERATLSCSASSSVSYMYWYQQKPGQAPRPWIYLTSNLASGVPARFSGSGSGTDFTLTISSLEPEDFAVYYCQQWTSIPFTFGQGTKVEIKR
notes: as for B10
B14: humanized anti-hIL-4R alpha monoclonal antibody 236-Hu (antibody, human IgG4 S228P, kappa, V domains shown)
VH: QVQLVQSGAEVKKPGASVKVSCKASGYTFTDYNVDWVRQAPGQGLEWIGTINPNNGGILSNQKFKGRVTITVDTSASTAYMELSSLRSEDTAVYYCGRGGLRRRGFMDYWGQGTLVTVSS
VL: B13 VL with S24R, S30I, M32I, Y33H, L49A, T50A, A54P, T91S, I93N, F95P
notes: as for B10

The first assay deals with T1, human IL-4R alpha on cells (TF-1 cells; human peripheral blood mononuclear cells) (human, UniProt P24394 26-825). Description: cell-based or functional assay.
As for B1, the “IC50 (ng/ml), inhibition of IL-4-induced TF-1 proliferation” value was determined as 43.7 ng/mL.
On the same count and under the same terms, with B2 the figure was 34.2 ng/mL; with B3, 29 ng/mL; with B4, 57 ng/mL.
Still for that read-out and setting: with B5 the figure was 23.6 ng/mL.
In the case of B6, the “IC50 (ng/ml), inhibition of IL-4-induced TF-1 proliferation” value is 36.6 ng/mL.
On the same count and under the same terms, in the case of B7 it was 22.4 ng/mL; in that of B8, 43.7 ng/mL; in that of B9, 49.6 ng/mL.

In a further assay the target is T1, human IL-4R alpha on cells (TF-1 cells; …). Briefly: cell-based or functional assay. The source holds these as a separate data set.
Turning to B10, the “IC50 (ng/ml), inhibition of IL-4-induced TF-1 cell proliferation” value is 156 ng/mL.
Still for that read-out and setting: in the case of B11 it was 90.6 ng/mL; in that of B12, 84.3 ng/mL.
Still for that read-out and setting: in the case of B13 it was 296 ng/mL.
B14: the “IC50 (ng/ml), inhibition of IL-4-induced TF-1 cell proliferation” value came out at 54.6 ng/mL.

The target of a further assay is T2, hIL-4R alpha-ECD-Fc (human, UniProt P24394 26-232).
T2 construct: range 26-232; hFc at the C-terminus of the ECD; also called hIL4R alpha-ECD-hFc; hIL-4R alpha-Fc antigen
Briefly: ELISA, plate coated with 1 ug/ml hIL-4R alpha-ECD-Fc. On the procedure:
The titer was tested by ELISA: an ELISA plate was coated with the hIL-4R alpha ECD-Fc antigen at a concentration of 1 μg/ml, 100 μl per well, and coated overnight at 4° C. The plates were washed twice with PBST (PBS containing 0.5% Tween-20) and then pat-dried. Each well was blocked with 200 μl of coating solution containing 1% BSA, blocked at room temperature for 4 h, pat-dried, and stored in a refrigerator at −20° C. for later use. During testing, 100 μl of mouse serum at different concentrations was added to each well of the ELISA plate, with two replicate wells, for incubation at room temperature for 1.5 h. The wells were washed with PBST for 3 times and then pat-dried. Then 100 μl of rabbit anti-mouse IgG labeled with HRP diluted with PBST by 1:10000 (purchased from Sigma) was added and the plates were incubated at room temperature for 1 h. The wells were washed with PBST for 3 times and then pat-dried. Then 100 μl of chromogenic solution was added to each well (an ELISA chromogenic solution A was mixed with a chromogenic solution B at a volume ratio of 1:1 before use) for a chromogenic reaction, and then 100 μl of 2M H2SO4 stopping solution was added to each well to terminate the reaction. The OD value of each well was immediately measured at 450 nm with a microplate reader (Molecular Device).
Optimized murine anti-hIL-4R alpha monoclonal antibodies were purified by a ProteinG affinity chromatography column and quantified by BCA. The EC50 of anti-hIL-4R alpha monoclonal antibodies binding to hIL-4R alpha was tested by ELISA. The testing method is as described in Example 3. An ELISA plate was coated with 1 μg/ml of hIL-4R alpha-ECD-Fc antigen, and then murine anti-hIL-4R alpha monoclonal antibodies at different concentrations were added for testing.
Regarding B1, the EC50 came out at 0.0117 µg/mL.
B2 yielded an EC50 of 0.0131 µg/mL.
Still for that read-out and setting: with B3 the figure was 0.0129 µg/mL; with B4, 0.0099 µg/mL; with B5, 0.0079 µg/mL.
Same read-out and setting: with B6 the figure was 0.0123 µg/mL.
With B7, the EC50 came to 0.0115 µg/mL.
On the same count and under the same terms, with B8 the figure was 0.0106 µg/mL; with B9, 0.0113 µg/mL.

A further assay deals with T3, hIL-4R alpha-ECD-Flag (human, UniProt P24394 26-232).
T3 construct: range 26-232; Analyte of the Biacore experiment
Description: SPR, Biacore T200, antibody captured on Protein-A chip, hIL-4R alpha-ECD-Flag as analyte. On the procedure:
The affinity of six purified humanized antibodies was detected by Biacore T200 (GE healthcare), with the reference antibody Dupilumab as a control. The specific experimental method was as follows: a Protein-A CMS sensor chip (GE healthcare) was used, with FC1 (Flow cell 1) as a reference channel, and FC2 (Flow cell 2) as a sample channel. Humanized antibodies or control antibody were captured in the FC2 channel, and then hIL-4R alpha-ECD-Flag at different concentrations was injected. Cycling conditions were as follows: an analyte was injected into all channels of FCs at 50 μl/min for 4 min, with a dissociation time of 20 min, and 6M guanidine hydrochloride (Sinopharm Chemical Reagent Co., Ltd.) was injected at a rate of 10 μl/min for 30 s for surface regeneration. Then, signal differences and affinity for interaction between captured antibodies and non-captured antibodies were calculated by Biacore T200 Evaluation Software Ver 1.0.
On the technique in general: SPR reads the build-up and loss of mass on a sensor chip optically.
B10 had a dissociation constant Kd of 0.526 nM, a koff of 0.00021 s⁻¹ and a kon of 398000 M⁻¹ s⁻¹.
In the same order, the values of B11 are 0.33 nM, 0.000111 s⁻¹ and 335000 M⁻¹ s⁻¹.
In the same order, the values of B12 are 0.154 nM, 9.8e-05 s⁻¹ and 635000 M⁻¹ s⁻¹.
B13 returned a Kd of 0.25 nM, a koff of 0.000284 s⁻¹ and a kon of 1.14e+06 M⁻¹ s⁻¹.
For B14, in that order: 0.173 nM, 0.000255 s⁻¹ and 1.48e+06 M⁻¹ s⁻¹.
